{"source": "a protein production outcome set (Wang et al. 2014)", "data": [{"assay": "label from the status in PepcDB records", "values": [{"sequence": "MTHASILISVIIPAYNAAKFLPDAIASVEKQTFTDWELLIINDGSTDDTIEVVREHQKTSDCIYLINQTNQGVSAARNQGVAHSQGQIIAFLDADDQWLPDKLSQHWQHFQSNSRLGVSFAQVEILDQAGEPTGQVSTSRLNDLKPEYFLSENPTTTTSNWVIRKEVFTQVGGFCLDMSYSEDLEWLLRVSSTTDWQIQGINQVLTRYRTSSSGLSSNLYYMEAGWKQLVNRARIYAPQLVHNHFALAQAVHLRYLARRAFRLKLPARVGVDFITRALISDWRLLFHQPQRTFFTLLAVFGALVMERVFGLNTHRGSTAKAEPFRGSIP", "protein production": "failed"}, {"sequence": "MTHPATVYSLSTRLLHWSMAFCFIGAIVLAYFVIWVLGHDHPQRLPVLNLHWVLGLLVGLLLVPRIVSRLRGPRLPAVPGTPLEHRLAHYAHLSLYALMLVMPLTGYVGTRLPTDFGLFVVPSFKDTALFAWISQTLNLSWEAFEKPFDAVHRVVGLWLSTSVVLLHALAAGYHQWVRRDGTLERMLGRRQRR", "protein production": "failed"}, {"sequence": "MTHTITIVGLGNYGIDELPLGIYRFLEKESKVYARTLNHPVINTLKKEIEFESFDSIYEAHDRFEDVYEAIVTSLIELAQSEDIVYAVPGHPRVAETTTVKLLEYSHFNKDISVKVLGGKSFIDDIFEAVDVDPNDGFTLLDGTSLKESALNVRTNTVITQVYSVMIAADLKLTLMERYPDDFNVKIITGSHSDGAHVIECPLYEIDRYDDYFNNLTSLFIPKINEDTLLYQDFDYAVQTIDLLVDNEKGCPWDKVQTHDSLKRYLLEETFELFEAIDNEDDWHMIEELGDILLQVLLHSSIGKKEGYIDIKEIIESLNTKMIHRHPHIFGNAHVTSQEDLKDIWSRAKEKEGKVPRVKFEKVFADHFLKLYDKTKNRQFDEDDLKQFLQQGEKNS", "protein production": "failed"}, {"sequence": "MTIFVLSSLLAILLAVAIYNSEPSSYAHRSPTYGIGYVFVYIIAAFLFSFVIIYLGRKKKLRIFKVIYSIVVAYVIFYVFLILLSIFLYNVYAIFTVSIVVAIVFFYMILFRNEWYVTDLAGFFLSVGISSIWGITFGVWAAVAFLIAFEIYDYIAVYKTRHMISLARYAVDSDLPMLFVLPENSGFTMRGLSFDNRGDGNVLMIGFGDIALPSIMVVSSAIYGISHILFFTVLPLAGGLIGMAVLYFWNRDRPAPGLPYINTGTIAGFLIAFLAFRVF", "protein production": "failed"}, {"sequence": "MTIFYYSFIILALLACLTVSFRIKKQQYLILYLFVIVLLSLLAGLRYDNADYENYLEIFKNPWEVSPDKGFSAFVLIVRWFTTSPIYMFLPVAIIAVSLNISSYRKYSPYLFVSVLFYFVHSFLLKEYVQIRAGLSCAICLYAIRYIEYKSLWKYIACMVIAMSIHMSSIIFFPMFWVYYFMKNKSNSCLMYFLLLSFIIGTLYPFGQVIKAYVPFLDETSRIATYANWDQFNNEIGILTNFTTLKQIILCVLCYIYWTRLKEVISCFSVLYLAYVLSTCWLMLFNDFVIIGARMATFLSVGEPIFFAGFLCLFNKQSRILVTLFFIIISCIIMDVNLHTKNLGEFKLYPLTSLF", "protein production": "failed"}, {"sequence": "MTIGPLALVISLSQQMCVYLVVAYLLSKTPLFIPLVHVTIRLPHKAACYAIFSLFCIMGTYFGLRIDDSIANTRAIGAVLGGMLGGPSVGLAVGLTGGLHRYSMGGFTALACAISTTAEGLIGGLVHRYLVSRGQTGKLFQPLVVGLVTLFAEVCQMLIIILVARPAVNAVHLVETIALPMLVANSVGAAMFMTILLDRRTMFETQSSVFSAKALKIAARAEGALRSGFNRENSMRVARIIYEETGVGAVAITDRDKILAFIGIGDDHHKPGMAVTSLQTLESIRENRVMYADGNEVAYQCSISPTCPLGAALVIPLVDEGEQVIGTIKLYEPKTRLFSTINRTLGEGVARLLSTQILAGRYEQQRQLLAQSEIKLLHAQVNPHFLFNALNTLSAVIRLDPDHARHLVQSLSTFFRKNLKRTSEQVTLNDEVEQVSAYLEIELARFGDRLSVDFNVPADLGTATLPTFSLQPLVENAIKHGTAQLLGDGRIGVSAERQGGDLVVRVEDNAGLYERRPGGDGLGMNLVDRRIRARYGQGYGLSVECERDVVTRVILRVPFDPSPAGVASPAFEKVGP", "protein production": "failed"}, {"sequence": "MTIHWCGTGLSAIPGLRRLIEAGHALTVWNRTVEKARAELGDLTDDIRAFDIDALGAVLAKGDVVVSMLPGDWHVPLAELAIAKGTHFVSSSYIAPEMRALDERAREAGVSLVNEIGLDPGIDHLMAHELVADYRASDAFDAQNHLSFISYCGGIPKHPNPFRYKFSWSPLGVLKALRSPSRSIRDYAPLDVARPWDAISSYTAPLPTPESFEVYPNRDSLPFMGQYHFKEHWPVKEFVRGTLRLNGWADAWGDVFREIETLSGPEGDARLKEMSDQFWAENAYDQGEPDRVVLCVGLKAEKDGREVWHKSYVMDAWGDARGTAMARLVSIPVSLAVEAVLNREIPAGVHAASSDPKLLARWMAEVATLAQHLQIVDHTA", "protein production": "failed"}, {"sequence": "MTIKEFIKKSRLKTWDVIIIAILVLGSFLPLVVFAMQNRGQEAATYQAVLKVDNKVIKVFDLKKDGPHYTYKYEAKDGDYNLIEVDGDRIRVKEANCADLVDVRRGWISKPGETPIACLPHNLFITVEASDGSEDGSLIY", "protein production": "failed"}, {"sequence": "MTIKGRAFPEGFLWGGAVAAHQLEGGYKEGGKGLSTADIMTLGTNERPREITDGVVAGKYYPNHQAIDFYHRYPEDIELFAEMGFKCFRTSIAWTRIFPNGDESEPNEAGLQFYDDLFDECLKNGIQPVVTLAHFEMPYHLVKQYGGWRNRKLIQFYLNFAKVCFERYRDKVTYWMTFNEINNQTNFESDGAMLTDSGIIHQPGENRERWMYQAAHYELVASAAAVQLGHQINPDFQIGCMIAMCPIYPLTAAPADVLFAQRAMQTRFYFADVHCNGTYPQWLRNRFESEHFNLDITAEDLKILQAGTVDYIGFSYYMSFTVKDTGKLAYNEEHDLVKNPYVKASDWGWQVDPVGLRYAMNWFTDRYHLPLFIVENGLGAIDKKTADNQIHDDYRIDYLTDHLRQIKLAVLEDGVDLIGYTPWGCIDLVAASTGQMSKRYGFIYVDENDDGSGSLKRYKKDSFTWFQHVIATNGAEIE", "protein production": "not failed"}, {"sequence": "MTIKRIFCDMDGTLLNSEGQVSKSNATLIREAAIPVTLVSARAPMEMKDAVDALQLGGVQVAFNGGLIYRIGDNNQVLPIHTQIIKKSTVKQLLRGIRFHFPQVSLSYYDLNNWYCDKIDEGIRYEHSLTQQCPTFIHNEDQFLEGHTNTFKIMMITFDEANMLELEKYLQSLELPEITIQRSGKAYLEITHLLAKKSKGIAYILQKEQLAREETAAFGDGHNDLPMLEMVGYPIVMDNAFDDIKAIAYQLTKSNDEDGVGYGIQKFLK", "protein production": "failed"}, {"sequence": "MTIKSDKWIRRMAQEHGMIEPFVERQVRGADDSRVISYGVSSYGYDVRCAAEFKVFTNIHSAVVDPKNFDEKSFVDINSDVCIIPPNSFALARTVEYFRIPRDVLTICLGKSTYARCGIIVNVTPLEPEWEGHVTLEFSNTTNLPAKIYANEGVAQMLFLQSDEACEVSYKDRGGKYQGQR", "protein production": "not failed"}, {"sequence": "MTINPRDYDLDELRKMARQRGNGMGDEDVPDPTDLDMGLDDADEEVLAGSSFRSGLYRELLPFLSGDAQEKPYLEALPETYAAEFVVFEWLEFLLMHSGYKGADEALDYYRSIDWLTEDVQDDLSDYLLGIDESATNDDNELSVDDHMLSLVYIAKLTAMT", "protein production": "failed"}, {"sequence": "MTIQQWLFSFKGRIGRRDFWIWIGLWFAGMLVLFSLAGKNLLDIQTAAFCLVCLLWPTAAVTVKRLHDRGRSGAWAFLMIVAWMLLAGNWAILPGVWQWAVGRFVPTLILVMMLIDLGAFVGTQGENKYGKDTQDVKYKADNKSSN", "protein production": "failed"}, {"sequence": "MTIRRLTPTPRAVDWGLFGAVATLLATGVATIFAGIPSSAWIIDLHALSGVVLTLLLPVKLRRVFHRVAPSRLTGTRVLSVGLAAVTLGALGTGVWWIFGGTLDLGPWGLFHLHVALGLLVPPLLLVHLRARFYSPAQATCGGRRDVLRYAGLVTAGALLWRVQGPVNDALDTAGADRRYTGSREEGTDDGNRFPVTSWVADDPDPVDAADWSLSVAGRVAHEASYVAGDLSPDATESAVLDCTSGWYSGHEWQGVRVGDLLDAADPDDAAAWVQFRSITGYRWSLPLSEARDAVLATHVDGERLAHGHGYPLRLVAPGRRGFQWVKWVESVRVSKRRELGEWLAIFVSGL", "protein production": "failed"}, {"sequence": "MTISADPDRDWKNRISAQALRQIQELDLALDPNSFELWYTFFSGRHKALTEAVNALLAATGRPSAGDISGLYEQFLYPTKAVTRIHAIGALVHSQSNALIDVIEEASDATHGYETRLSSAAPRLALGRMEDGLQTIVDELLTWTMDIQTANAVLVDRLRSAADQVRKLQDQLDQVRLESMTDPLTEVGNRKYFENQLSLHVASDDSGPLALLIVDLDNFKQFNDRHGHVVGDDVLRLAASTIKHNCRRDDVVCRYGGDEFAIILPRTPLREALLLGEAIRAAIAARELHRRSTHESLGRLLISIGAAEFRPGETADDFVERADHWMYAAKQARRDRTRPGPDAAARDPGERRPDILWHETYACGEPTIDAQHRELFDLANVILGPEIEMLEPARLSELVELLLTRVAEHFQYEQAVLEASGYDECGLHRMEHDHLLIRARQVSEAVVSGHQSLGELRAFLVNSVILGHMLKDDRRFFPLFDRQASSATQSGAAPVHRERRRLSL", "protein production": "failed"}, {"sequence": "MTISNFVNYIRSPPVNGFVCCTRGSSIAVCNPTTRQIVKLPDVVTNENYMHVRLGYDPVEDQYKVLLVVMMFDGYRTDTDQEYFVFTLSSQQKEWRKIENTTGETYHMVYGGICIDGAIYYGVSQSIIVKFDVRSEKMEFIQAHEVSHIAPPYYSTLLYLSSDMIRMENHSNEEVRFWILEDAEKLRVSHMACDVWDDSLGKYVRAKEEIHTGKLMGIYPRLQSSKYKPFSVCVYHFNKVGLKKTEIQGSNDDDIRFRCGIGMRTHEILILEVTLRILGSCEEFSWFH", "protein production": "not failed"}, {"sequence": "MTISWFQAALLGLFACLSSMPGLGGTTIGNYTLGRPLVGGLVCGLILGDIKTGIVCGVAMQLVYIALVTPGGTVSADVRAVSYIGIPLAMVAIHSQGLSATSSDAANLAKSMGTLVGTIGTVLFYGTATMNLVWQHIGWQAVEKREFKRLYVVDWGLPWISHIVFSFIPTLIMCKLGADAVTALKNALPMDGIPMKTLFTVGSLLPCVGIAILLKQIVEKAVDFIPFFVGFTLAASLGLNLVSCAVISLIFAVLFYELETIKNMRATASAEASDFDDDDEEDI", "protein production": "failed"}, {"sequence": "MTKAIPWKINWQTMAFEYIGPQIEALLGWPQGSWKSVEDWATRMHPEDQEWVVNFCVKQSECGVDHEADYRALHRDGHYVWIRDVVHVVRDDSGEVEALIGFMFDISLEHHHHHH", "protein production": "not failed"}, {"sequence": "MTKAREFLGTGWKFPVAAGADGAMVLSSAEEDIAESIRIILGTARGERVMRPDFGCGIHDRVFSVINTTTLGLIENEVKEALILWEPRIELLSVTASPREAAEGRLLIDIEYRVRSTNTRFNLVYPFYLKESA", "protein production": "not failed"}, {"sequence": "MTKFKGIIYASLGAAFFGISSIIAGLLFNRCSIEPGWLVTTRMLFSGLLLLAWLAITKHNIFSVWSSVKSSLRIVAFGIFGVLFAQSSFLLSVYYGNAAIATILQSLGPSIIIIILAIKSKAIPRRLDIIAIFLSLIGVFLLVTNGNIGELSFSASALVWGLLSALGVCAYTLIPCPLIKEHPPLSLVAWALLIGGVISNFLHPVTNLPKNFDQTDLLLVSLIVVVGTLLAYSLYINSLKYTEPHIVGMLGMLEPVTAILISTLFLGVSFLGFQQLGIFVVFLSLFLINFPAKKK", "protein production": "failed"}, {"sequence": "MTKFSIIIPTRERVGTLLYTLPACLRVERDDIEFVVCDNYSQDGTADYLKSIQDHRVRIYRTNQRLSMKDNFEHGLARAQGEYICFMGDDDLIIPSLFPLVEKELENVETVCWNRWVYYWPDSYESPNMLIVNNNNFSVILSSSRALDFALRYFLNYQNLPSLYNSFTHRKIVQRVINYNCLNLETEKFYPQDAISPDVFSALQILKFTNSFAHIGLPLTVSGISSSSNGAGVRNNSEESKKFIQELKVEKLSDLLHVSLSALLTQKISYYITNLSDYISFIINYIPETLQEDIFLDLIASGCRTLFDIGDIDADTATQFMAGYDISPWVVNGRLNLMDQGFYTLFRVPMFNRVVINGDEHSLSNSLNASVFLDDYFSSLIY", "protein production": "failed"}]}]}
